Assay [1] concerns the target T1, Human CD93 recombinant protein (Sino Biological Inc, Catalog #12589-H08H) (human, UniProt Q9NPY3 22-580).
T1 construct: Biotinylated (EZ-LINK NHS-PEG4 biotin) in the BLI assays; also called hCD93; His-tagged human CD93
T1 sequence (looked up): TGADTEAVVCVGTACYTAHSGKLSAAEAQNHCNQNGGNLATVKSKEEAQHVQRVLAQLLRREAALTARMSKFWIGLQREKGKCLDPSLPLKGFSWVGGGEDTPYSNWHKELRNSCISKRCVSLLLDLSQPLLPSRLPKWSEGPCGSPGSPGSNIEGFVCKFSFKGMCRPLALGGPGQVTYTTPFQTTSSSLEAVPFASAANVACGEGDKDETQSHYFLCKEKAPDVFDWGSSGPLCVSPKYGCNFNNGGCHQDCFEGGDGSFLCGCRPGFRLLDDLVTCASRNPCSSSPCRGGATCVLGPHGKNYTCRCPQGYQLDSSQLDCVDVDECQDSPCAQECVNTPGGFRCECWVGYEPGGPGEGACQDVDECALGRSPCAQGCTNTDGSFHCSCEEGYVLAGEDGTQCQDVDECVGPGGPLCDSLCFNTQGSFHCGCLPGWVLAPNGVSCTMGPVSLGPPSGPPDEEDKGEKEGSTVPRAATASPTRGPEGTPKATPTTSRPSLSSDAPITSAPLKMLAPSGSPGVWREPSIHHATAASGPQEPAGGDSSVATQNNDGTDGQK
As to the kind of experiment: ELISA, hCD93-His coated, OD450. The protocol:
His-tagged human CD93 was coated onto a 96 well plate at 1 μg/mL in 1×PBS overnight at 4° C. The plate was washed with ELISA wash buffer (Boston BioProduct, Inc.) and the wells were blocked with ELISA blocking buffer for 1 hour at 37° C. Purified antibodies were serially diluted in ELISA blocking buffer (Boston BioProduct, Inc.) and incubated on the receptor for 1 hour at 37° C. The plate was washed with ELISA wash Buffer. […] The plate was washed with ELISA wash buffer. HRP substrate was added for indirect detection of the antibodies binding to CD93.
In general terms: An ELISA detects its analyte on a solid surface through an enzyme-linked reagent.

In assay [2] the target is T1, Human CD93 recombinant protein (Sino …). The assay is described as follows: summary table, column ELISA (hCD93).
The target is the same in assay [3]. As to the kind of experiment: summary table, column Octet (hCD93). A general note: BLI is a label-free optical method that tracks binding on a fibre tip over time.
The target of assay [4] is T2, Human CD93 on cells (human CD93 expressing CHO cells; HUVEC, U937 and KG1a cells) (human, UniProt Q9NPY3 22-652).
T2 construct: whole, on cells; also called hCD93 expressing CHO cells; hCD93 CHO cells
T2 sequence (looked up): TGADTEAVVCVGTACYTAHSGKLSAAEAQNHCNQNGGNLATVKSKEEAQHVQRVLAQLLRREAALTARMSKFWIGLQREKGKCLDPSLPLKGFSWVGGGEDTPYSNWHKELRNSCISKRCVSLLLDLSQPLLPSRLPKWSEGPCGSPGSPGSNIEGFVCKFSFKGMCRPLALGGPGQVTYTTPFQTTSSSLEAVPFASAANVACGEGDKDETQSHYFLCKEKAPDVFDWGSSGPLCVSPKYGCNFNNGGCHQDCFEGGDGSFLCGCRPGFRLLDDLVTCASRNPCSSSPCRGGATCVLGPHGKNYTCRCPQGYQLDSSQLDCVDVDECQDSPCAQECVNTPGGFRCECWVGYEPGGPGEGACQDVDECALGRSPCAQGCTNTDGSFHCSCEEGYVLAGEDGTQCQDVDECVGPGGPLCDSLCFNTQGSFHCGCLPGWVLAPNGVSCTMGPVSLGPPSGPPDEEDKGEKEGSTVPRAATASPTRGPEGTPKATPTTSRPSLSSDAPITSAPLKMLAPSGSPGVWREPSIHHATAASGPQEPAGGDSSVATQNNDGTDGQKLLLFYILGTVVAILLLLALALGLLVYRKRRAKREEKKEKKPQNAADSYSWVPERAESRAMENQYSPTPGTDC
As to the kind of experiment: flow cytometry, CHO-hCD93 cells, APC-A. A general note: Flow cytometry measures light scatter and fluorescence of single cells or particles in a stream.

Assay [5] concerns the target T2, Human CD93 on cells (human CD93 …). As to the kind of experiment: summary table, column FACS (HUVEC cells).
Assay [6] has the same target. The assay is described as follows: summary table, column FACS (CHO-hCD93 cells).
In assay [7] the target is T3, Mouse CD93 on cells (mouse CD93 expressing CHO cells; mouse CD93 expressing HEK cells) (mouse, UniProt O89103 23-644).
T3 construct: whole, on cells; also called mCD93 HEK; CD93-HEK cells
T3 sequence (looked up): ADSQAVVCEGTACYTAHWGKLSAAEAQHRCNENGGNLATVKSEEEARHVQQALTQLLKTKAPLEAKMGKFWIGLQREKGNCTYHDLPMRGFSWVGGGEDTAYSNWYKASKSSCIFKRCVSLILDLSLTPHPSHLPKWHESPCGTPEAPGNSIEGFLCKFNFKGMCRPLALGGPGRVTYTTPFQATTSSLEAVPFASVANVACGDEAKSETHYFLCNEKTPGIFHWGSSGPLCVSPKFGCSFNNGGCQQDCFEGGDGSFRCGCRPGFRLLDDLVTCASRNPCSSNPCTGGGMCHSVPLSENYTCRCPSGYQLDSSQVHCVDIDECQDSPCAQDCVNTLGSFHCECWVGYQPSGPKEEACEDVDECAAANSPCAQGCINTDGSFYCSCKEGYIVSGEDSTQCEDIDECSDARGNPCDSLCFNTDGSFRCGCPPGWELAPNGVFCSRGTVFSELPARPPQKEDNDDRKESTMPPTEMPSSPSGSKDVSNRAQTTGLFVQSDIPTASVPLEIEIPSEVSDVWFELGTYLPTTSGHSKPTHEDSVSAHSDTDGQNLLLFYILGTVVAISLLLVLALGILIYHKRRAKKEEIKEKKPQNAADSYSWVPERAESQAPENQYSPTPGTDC
As to the kind of experiment: summary table; method and form of mouse CD93 not given.

Assay [8] has as its target T1, Human CD93 recombinant protein (Sino …). The assay is described as follows: BLI (Octet), human CD93; sheet prints Anti-Penta-HIS(HIS1K) biosensor.
Assay [9] concerns the target T2, Human CD93 on cells (human CD93 …). As to the kind of experiment: flow cytometry blocking assay, CHO-hCD93 cells, antibody 50 ug/ml then MMRN2 0.5 ug/ml, APC-A. Here is the method: (§1) After incubation, the cells were washed with FACS buffer and incubated with anti-His conjugated APC or streptavidin conjugated APC at a ratio of 1:500 for 30 minutes at 4° C. After washing with FACS buffer twice, the samples were analyzed and data acquired in NovoCyte Flow.

The target is the same in assay [10]. The assay is described as follows: flow cytometry blocking assay, CHO-hCD93 cells, antibody 50 ug/ml then MMRN2 0.1 ug/ml, APC-A. Here is the method:
as §1

The target is the same in assay [11]. As to the kind of experiment: flow cytometry, CHO cells overexpressing human CD93, antibody 0.01ug, mIgG1 as control, APC-A.
Assay [12] has the same target. As to the kind of experiment: flow cytometry titration on human CD93 CHO cells; column head printed kd, unit from the axis log (concentration (M)). The protocol:
Cells were quenched with media then counted. Cells were resuspended in FACS buffer (ice cold PBS with 0.5% BSA) and human serum was added to 20% (10% final volume) and put on ice for approximately 20 minutes. 5×10⁴ cells were seeded per well in 100 μL and incubated with serial diluted anti-CD93 antibodies in 100 μL on ice for 2 hours. Samples were then washed by spinning samples at 1200 rpm for 5 minutes. Media was discarded and cells were resuspended in 200 μL ice cold FACS buffer. Cells were washed again and resuspended in 100 μL of secondary Antibody, AlexaFluor647 conjugated anti-human IgG or anti-mouse IgG antibodies (Jackson ImmunoResearch), diluted 1:500 in FACS buffer. Plates were covered with foil to protect from like and incubated for 1 hour on ice. Cells were washed again resuspended in 200 μL ice cold FACS buffer. Cells were washed again and were resuspended in 200 μL fixing solution (PBS with 1% formaldehyde). Samples were stored at 4° C. covered in foil, then were acquired in NovoCyte Flow Cytometer and analyzed by NovoExpress software.

Assay [13] has the same target. As to the kind of experiment: flow cytometry titration on U937 cells -human serum; column head printed kd, unit from the axis log (concentration (M)). The protocol: Cells were quenched with media then counted. Cells were resuspended in FACS buffer (ice cold PBS with 0.5% BSA) and put on ice ˜20 min. 5×10⁴ cells were seeded per well in 100 μL and incubated with serial diluted anti-CD93 antibodies in 100 μL on ice for 2 hours. Samples were then washed by spinning samples at 1200 rpm for 5 minutes. Media was discarded and cells were resuspended in 200 μL ice cold FACS buffer. Cells were washed again and resuspended in 100 μL of secondary Antibody, AlexaFluor647 conjugated anti-human IgG or anti-mouse IgG antibodies (Jackson ImmunoResearch), diluted 1:500 in FACS buffer. Plates were covered with foil to protect from light and were incubated for 1 hour on ice. Samples were then washed again and resuspended in 200 μL ice cold FACS buffer. Cells were washed again and resuspended in 200 μL fixing solution (PBS with 1% formaldehyde). Samples were stored at 4° C. covered in foil, ands were subsequently acquired in NovoCyte Flow Cytometer and analyzed by NovoExpress software.

The target is the same in assay [14]. As to the kind of experiment: flow cytometry titration on HUVEC cells +human serum; column head printed kd, unit from the axis log (concentration (M)). Here is the method:
(§2) Recombinant parental anti-CD93 antibodies were evaluated for their ability to bind to HUVEC cells in the presence or absence of human serum. […] Antibodies were purified using Protein G Sepharose. The resulting antibodies were tested for its binding capacity to a variety of cells that express CD93. […] Cells were quenched with media then counted. Cells were resuspended in FACS buffer (ice cold PBS with 0.5% BSA) and human serum was added to 20% (10% final volume) and put on ice for approximately 20 minutes. 5×10⁴ cells were seeded per well in 100 μL media and incubated with serial diluted anti-CD93 antibodies in 100 μL on ice for 2 hours. Cells were then washed by spinning cells at 1200 rpm for 5 min. Media was discarded and cells were resuspended in 200 μL ice cold FACS buffer. The wash step was repeated and cells were resuspended in 100 μL of secondary antibody, AlexaFluor647 conjugated anti-human IgG or anti-mouse IgG antibodies (Jackson ImmunoResearch), diluted 1:500 in FACS buffer. Plates were blocked from light and incubated 1 hour at 4° C. Cells were then washed again then were resuspended in 200 μL ice cold FACS buffer. Cells were washed again and resuspended in 200 μL fixing solution (PBS with 1% formaldehyde). Samples were stored at 4° C. covered in foil, then were acquired in NovoCyte Flow Cytometer and analyzed by NovoExpress software.

The target is the same in assay [15]. As to the kind of experiment: flow cytometry titration on HUVEC cells -human serum; column head printed kd, unit from the axis log (concentration (M)). Here is the method: as §2

B1: 7F3 (hybridoma) (antibody, IgG1, V domains shown)
VH: QVQLQQSGADLVRPGASVKLSCKASGYTFTDYEMHWVKQTPVYGLEWIGGIDPETGDTAYNQNFKGKATLTADKSSSAAYMELRSLTSEDSAVYYCTNYGNLYYYAMDYWGQGTSVTVSS
VL: ENVLTQSPAIMSASPGEKVTMTCRASSSVSSSYLHWYQQKSGASPKLWIYSTSNLAFGVPARFSGSGSGTSYSLTISSVEAEDAATYYCQQYSGYPLTFGSGTKLEIK
notes: also called 7F3 mAb; 7F3 mIgG1
Take B1: the EC50 – broadly, the concentration that produces a half-maximal response – in [1] stood at 0.0667 nM; in assay [2], 0.0667 nM; in assay [5], 2.94 nM; in assay [6], 0.21 nM. Moreover, the results for the Kd in assay [3] and in [8] were 0.493 nM and 1.26 nM, respectively. In addition, the “M3 gate, % of cells” value in assay [4] came to 96.3%. Moreover, the binding result in assay [7] is on record as “no binding”. In [8], the koff (commonly the first-order rate constant of dissociation) came to 0.000478 s⁻¹. Also, the kon (in general, a measure of how fast the partners come together) in [8] worked out at 381000 M⁻¹ s⁻¹. Moreover, the results for the “M3 gate, % of cells positive for MMRN2 after the antibody” value in [9] and in [10] were 9.93% and 12.2%, respectively.

B2: Recombinant parental 17B10 with a human CH1 domain and mouse IgG1 CH2 and CH3 Fc domains (antibody, V domains shown)
VH: QVQLQQSGPELVKPGASVKISCKASGYAFSSYWLNWVKQRPGKGLEWFGRIYPGDGDTDYNGKFKGKATLTADKSSSTAYMQLRSLTSEDSAVYFCVRGDGYWAMDYWGQGTSVTVSS
VL: DIVMTQAAFSNPVTLGTSASISCRFSKSLLHSNGITYLYWYLQKPGQSPQLLIYQMSNLASGVPDRFSSSGSGTDFTLRISRVEAEDVGVYYCAQNLELPWTFGGGTKLEIK
Turning to B2, the “M2 gate, % of cells” value in assay [11] was 98.4%. For the same molecule, the Kd (commonly a measure of binding affinity in units of concentration) is 0.163 nM in [12], 0.0666 nM in [13], 0.196 nM in [14] and 0.111 nM in assay [15].
